Numbered stars: 1 amine (or outer) side, 2 acyl side, 3 side chain; on linkers, the order of the positions; unused ones are H or OH. Square brackets hold non-standard residues; d marks the D form. Ends that are not written are not given here. * marks the point of attachment. AFL = (S)-2-((S)-3-amino-2-oxopyrrolidin-1-yl)-3-phenylpropanoic acid, O=C1[C@@H](N[*:1])CCN1[C@@H](Cc1ccccc1)C(=O)[*:2]; Pca = (2S,3R)-3-aminopyrrolidine-2-carboxylic acid, O=C([C@@H]1[C@H](N[*:3])CCN1[*:1])[*:2]; 779 = 2-((1S,2R,4R)-bicyclo[2.2.1]heptan-2-yl)acetic acid, O=C(C[C@H]1C[C@@H]2CC[C@H]1C2)*; Eal = rac-imidazolidine-2-carboxylic acid, O=C(C1N([*:1])CCN1[*:3])[*:2]; 3218 = (S)-2-cyclopentylhexanoic acid, CCCC[C@H](C(=O)*)C1CCCC1; Pro(trans-4-NH2) = O=C([C@@H]1C[C@@H](N[*:3])CN1[*:1])[*:2]; 785 = 2-phenethyl-benzoic acid, O=C(c1ccccc1CCc1ccccc1)*; Sni = (S)-nipecotic acid, O=C([C@H]1CCCN([*:1])C1)[*:2]; 6013 = (2-butoxy-ethoxy)-acetic acid, CCCCOCCOCC(=O)*; Gly(2-thienyl) = N[C@H](C(=O)O)c1cccs1; Propanoyl(3-cHex) = O=C(CCC1CCCCC1)*; Hydrocinnamoyl = O=C(CCc1ccccc1)*; Hyp = O=C(O)[C@@H]1C[C@@H](O)CN1; ES‑283‑049 = not defined here; NMeL = CN[C@@H](CC(C)C)C(=O)O; Decanoyl = CCCCCCCCCC(=O)*; Nle = CCCC[C@H](N)C(=O)O; Api = NC1(C(=O)O)CCNCC1; Che = not defined here; leu = not defined here; NP = not defined here; Occ = octanoic acid

The results in this text go back to patent US9187525B2, “Methods of treating ophthalmic diseases using NPR-B agonists” (Shire Orphan Therapies GmbH, dated 2015).

The target in this experiment is T1, natriuretic peptide receptor-B (human).
T1 chain: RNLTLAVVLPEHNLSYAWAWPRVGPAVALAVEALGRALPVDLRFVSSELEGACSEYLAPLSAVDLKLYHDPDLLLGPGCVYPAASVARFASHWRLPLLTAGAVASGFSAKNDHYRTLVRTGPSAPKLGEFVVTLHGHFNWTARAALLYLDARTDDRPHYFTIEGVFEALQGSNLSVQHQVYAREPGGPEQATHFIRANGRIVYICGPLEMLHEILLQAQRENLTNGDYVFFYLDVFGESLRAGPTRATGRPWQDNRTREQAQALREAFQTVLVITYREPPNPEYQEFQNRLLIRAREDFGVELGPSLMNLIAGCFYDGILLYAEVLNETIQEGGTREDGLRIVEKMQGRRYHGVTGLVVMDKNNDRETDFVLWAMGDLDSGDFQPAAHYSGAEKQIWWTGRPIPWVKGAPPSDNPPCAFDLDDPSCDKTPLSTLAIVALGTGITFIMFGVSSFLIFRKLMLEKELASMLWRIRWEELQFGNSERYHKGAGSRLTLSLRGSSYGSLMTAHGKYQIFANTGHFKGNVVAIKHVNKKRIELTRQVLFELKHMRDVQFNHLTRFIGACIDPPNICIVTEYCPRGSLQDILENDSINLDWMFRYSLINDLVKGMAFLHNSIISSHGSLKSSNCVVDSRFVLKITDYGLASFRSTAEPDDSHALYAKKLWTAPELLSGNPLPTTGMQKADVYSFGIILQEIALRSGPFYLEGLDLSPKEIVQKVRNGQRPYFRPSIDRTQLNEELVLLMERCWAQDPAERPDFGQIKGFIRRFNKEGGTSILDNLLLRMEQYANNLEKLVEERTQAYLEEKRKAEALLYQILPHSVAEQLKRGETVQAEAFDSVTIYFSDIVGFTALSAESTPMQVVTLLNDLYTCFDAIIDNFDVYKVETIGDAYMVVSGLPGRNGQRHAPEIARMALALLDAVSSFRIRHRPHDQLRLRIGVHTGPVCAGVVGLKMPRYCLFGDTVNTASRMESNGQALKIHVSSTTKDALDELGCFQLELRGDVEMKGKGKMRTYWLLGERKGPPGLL
The experiment is described as follows: cell-based or functional assay.

Turning to [785][Sni]F[leu]L[Hyp][NMeL]DRI-NH2 (reading uncertain; also: printed as 785-Sni-Phe-leu-Leu-Hyp-Nml-Asp-Arg-Ile-NH2) [JAL-1660], the “EC50 group, cGMP in GTM-3 cells” value is no more than 15 µM.
Regarding [779][Sni]F[leu]L[Hyp][NMeL]DRI-NH2 (reading uncertain; also: printed as 779-Sni-Phe-leu-Leu-Hyp-Nml-Asp-Arg-Ile-NH2) [JAL-1659], the “EC50 group, cGMP in GTM-3 cells” value is no more than 5 µM.
For [Occ][Sni]F[leu][Nle][Hyp][NMeL]DP[Che] (reading uncertain; also: printed as Occ-Sni-Phe-leu-Nle-Hyp-Nml-Asp-Pro-Che) [JAL-1657], the “EC50 group, cGMP in GTM-3 cells” value was no more than 1 µM.
Under [Occ][Sni]F[leu]L[Hyp][NMeL]EP[Che] (reading uncertain; also: printed as Occ-Sni-Phe-leu-Leu-Hyp-Nml-Glu-Pro-Che) [JAL-1652] stands no more than 5 µM; under [Occ][Sni]F[dL]L[Hyp][NMeL]DR[Che] (reading uncertain; also: printed as Occ-Sni-Phe-leu-Leu-Hyp-Nml-Asp-Arg-Che) [JAL-1680], no more than 1 µM.

B1: JAL-1665 (peptide)
peptide: [6013][Sni]F[leu]L[Hyp][NMeL]DRI-NH2
modifications: reading uncertain; also: printed as 6013-Sni-Phe-leu-Leu-Hyp-Nml-Asp-Arg-Ile-NH2
In the case of B1, the “EC50 group, cGMP in GTM-3 cells” value is no more than 5 µM.
For the molecule [Occ][Sni]F[dL]L[Hyp][NMeL][NP][Che] (reading uncertain; also: printed as Occ-Sni-Phe-leu-Leu-Hyp-Nml-NP-Che) [JAL-1673], the “EC50 group, cGMP in GTM-3 cells” value is no more than 15 µM.
Take {Propanoyl(3-cHex)}-[dA][dA]FGLKLDRI-NH2 [JAL-0703]: the “EC50 group, cGMP in GTM-3 cells” value is no more than 15 µM.
For [Occ][Sni]F[leu]L[Hyp][NMeL]D[Eal][Che] (reading uncertain; also: printed as Occ-Sni-Phe-leu-Leu-Hyp-Nml-Asp-Eal-Che) [JAL-1639], the “EC50 group, cGMP in GTM-3 cells” value was no more than 5 µM.
[Occ][AFL][dL]L[Hyp][NMeL]DRI-NH2 [JAL-1671]: the “EC50 group, cGMP in GTM-3 cells” value was no more than 1 µM.
[Occ][Sni]F[dL]L[Hyp][NMeL]D[Api][Che] (reading uncertain; also: printed as Occ-Sni-Phe-leu-Leu-Hyp-Nml-Asp-Apc-Che) [JAL-1672]: the “EC50 group, cGMP in GTM-3 cells” value was no more than 15 µM.
Consider [Occ][Sni]F[dL]L[Pro(trans-4-NH2)][NMeL][Gly(2-thienyl)]P[Che] (reading uncertain; also: printed as Occ-Sni-Phe-leu-Leu-Tap-Nml-(BB726)-Pro-Che) [JAL-1676], for which the “EC50 group, cGMP in GTM-3 cells” value is no more than 5 µM.
For the molecule [Occ][Sni]F[leu]L[Pro(trans-4-NH2)][NMeL]VP[Che] (reading uncertain; also: printed as Occ-Sni-Phe-leu-Leu-Tap-Nml-Val-Pro-Che) [JAL-1654], the “EC50 group, cGMP in GTM-3 cells” value was no more than 1 µM.

B2: JAL-0713 (peptide)
peptide: XXFGLKLDRI
HELM: PEPTIDE1{[CCCCCC(=O)[*:2]].[O=C(c1nc(N[*:1])cs1)[*:2]].F.G.L.K.L.D.R.I.[am]}$$$$V2.0
SMILES: CCCCCC(=O)Nc1csc(C(=O)N[C@@H](Cc2ccccc2)C(=O)NCC(=O)N[C@@H](CC(C)C)C(=O)N[C@@H](CCCCN)C(=O)N[C@@H](CC(C)C)C(=O)N[C@@H](CC(=O)O)C(=O)N[C@@H](CCCNC(=N)N)C(=O)N[C@H](C(N)=O)[C@@H](C)CC)n1
As for B2, the “EC50 group, cGMP in GTM-3 cells” value is no more than 15 µM.

B3: JAL-1668 (peptide)
peptide: XGXFLLXXDRI
HELM: PEPTIDE1{[O=C(CCc1ccccc1)[*:2]].G.[O=C([C@H]1CCCN([*:1])C1)[*:2]].F.[dL].L.[Hyp].[meL].D.R.I.[am]}$$$$V2.0
SMILES: CC[C@H](C)[C@H](NC(=O)[C@H](CCCNC(=N)N)NC(=O)[C@H](CC(=O)O)NC(=O)[C@H](CC(C)C)N(C)C(=O)[C@@H]1C[C@@H](O)CN1C(=O)[C@H](CC(C)C)NC(=O)[C@@H](CC(C)C)NC(=O)[C@H](Cc1ccccc1)NC(=O)[C@H]1CCCN(C(=O)CNC(=O)CCc2ccccc2)C1)C(N)=O
For B3, the “EC50 group, cGMP in GTM-3 cells” value is no more than 15 µM.

B4: JAL-1669 (peptide)
peptide: XXXFLLXXDRI
HELM: PEPTIDE1{[O=C(CCc1ccccc1)[*:2]].[bAla].[O=C([C@H]1CCCN([*:1])C1)[*:2]].F.[dL].L.[Hyp].[meL].D.R.I.[am]}$$$$V2.0
SMILES: CC[C@H](C)[C@H](NC(=O)[C@H](CCCNC(=N)N)NC(=O)[C@H](CC(=O)O)NC(=O)[C@H](CC(C)C)N(C)C(=O)[C@@H]1C[C@@H](O)CN1C(=O)[C@H](CC(C)C)NC(=O)[C@@H](CC(C)C)NC(=O)[C@H](Cc1ccccc1)NC(=O)[C@H]1CCCN(C(=O)CCNC(=O)CCc2ccccc2)C1)C(N)=O
As for B4, the “EC50 group, cGMP in GTM-3 cells” value was no more than 15 µM.

B5: JAL-1661 (peptide)
peptide: [Hydrocinnamoyl][Sni]F[leu]L[Hyp][NMeL]DRI-NH2
modifications: reading uncertain; also: printed as 1281-Sni-Phe-leu-Leu-Hyp-Nml-Asp-Arg-Ile-NH2
Regarding B5, the “EC50 group, cGMP in GTM-3 cells” value is no more than 5 µM.

B6: JAL-1646 (peptide)
peptide: [Occ][Sni]F[leu]L[Hyp][NMeL]D[ES‑283‑049]
modifications: reading uncertain; also: printed as Occ-Sni-Phe-leu-Leu-Hyp-Nml-Asp-(ES-283-049)
As for B6, the “EC50 group, cGMP in GTM-3 cells” value is no more than 5 µM.

B7: JAL-1664 (peptide)
peptide: [3218][Sni]F[leu]L[Hyp][NMeL]DRI-NH2
modifications: reading uncertain; also: printed as 3218-Sni-Phe-leu-Leu-Hyp-Nml-Asp-Arg-Ile-NH2
Regarding B7, the “EC50 group, cGMP in GTM-3 cells” value is no more than 15 µM.

B8: JAL-1666 (peptide)
peptide: [Decanoyl][Sni]F[leu]L[Hyp][NMeL]DRI-NH2
modifications: reading uncertain; also: printed as 5587-Sni-Phe-leu-Leu-Hyp-Nml-Asp-Arg-Ile-NH2
Consider B8, for which the “EC50 group, cGMP in GTM-3 cells” value is no more than 1 µM.
In the case of [Occ][Sni]F[dL]L[Hyp][NMeL]D[Pca][Che] (reading uncertain; also: printed as Occ-Sni-Phe-leu-Leu-Hyp-Nml-Asp-Pca-Che) [JAL-1679], the “EC50 group, cGMP in GTM-3 cells” value was no more than 1 µM.
